The record followed here is PMC3859963 (Molecular cancer therapeutics, 2013).

Square brackets hold non-standard residues; d marks the D form. Ends that are not written are not given here.

The assay deals with CD44s (UniProt P16070-12 21-361). In words: flow cytometry on cells.

With [dK][dI][dK][dM][dV][dI][dS][dW][dK]G (also: 5(6)-FAM label, position not given here) [5(6)-FAM-HYD1], the “fold increase of binding versus vector only cells” value was determined as 1.5 fold.
